Data on five molecules can be found in publication PMC3034952 (Enzyme Research, 2011).

Positions count from the first letter of the chain named. Names may count otherwise.

The Km is the concentration of substrate that gives half-maximal velocity. Usually kcat stands for the maximal rate divided by the concentration of active sites. In general, kcat/Km refers to the second-order rate constant that governs catalysis at low substrate concentration.

T1: Arabidopsis thaliana pyruvate dehydrogenase-kinase (AtPDK), wild type, bacterial two-hybrid fusion in pBT (Arabidopsis thaliana, UniProt Q9SBJ1 1-366)
T1 sequence (looked up): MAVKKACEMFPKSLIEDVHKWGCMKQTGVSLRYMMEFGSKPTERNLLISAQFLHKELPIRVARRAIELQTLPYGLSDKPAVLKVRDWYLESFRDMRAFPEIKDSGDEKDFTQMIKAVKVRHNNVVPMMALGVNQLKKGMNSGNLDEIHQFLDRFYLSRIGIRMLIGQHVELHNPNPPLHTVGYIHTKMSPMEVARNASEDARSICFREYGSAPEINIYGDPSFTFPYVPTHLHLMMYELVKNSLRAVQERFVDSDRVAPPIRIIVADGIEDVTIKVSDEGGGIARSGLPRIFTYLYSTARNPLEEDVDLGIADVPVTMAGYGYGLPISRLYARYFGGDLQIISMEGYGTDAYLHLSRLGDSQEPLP

B1: AtPDC E1α, wild type, bacterial two-hybrid fusion in pTRG (enzyme, Arabidopsis thaliana, UniProt P52901 1-389, looked up)
chain: MALSRLSSRSNIITRPFSAAFSRLISTDTTPITIETSLPFTAHLCDPPSRSVESSSQELLDFFRTMALMRRMEIAADSLYKAKLIRGFCHLYDGQEAVAIGMEAAITKKDAIITAYRDHCIFLGRGGSLHEVFSELMGRQAGCSKGKGGSMHFYKKESSFYGGHGIVGAQVPLGCGIAFAQKYNKEEAVTFALYGDGAANQGQLFEALNISALWDLPAILVCENNHYGMGTAEWRAAKSPSYYKRGDYVPGLKVDGMDAFAVKQACKFAKQHALEKGPIILEMDTYRYHGHSMSDPGSTYRTRDEISGVRQERDPIERIKKLVLSHDLATEKELKDMEKEIRKEVDDAIAKAKDCPMPEPSELFTNVYVKGFGTESFGPDRKEVKASLP
B2: AtPDC E1 (AtE1; recombinant alpha2beta2 pyruvate dehydrogenase) (Arabidopsis thaliana) (protein)
chain 1: SAAFSRLISTDTTPITIETSLPFTAHLCDPPSRSVESSSQELLDFFRTMALMRRMEIAADSLYKAKLIRGFCHLYDGQEAVAIGMEAAITKKDAIITAYRDHCIFLGRGGSLHEVFSELMGRQAGCSKGKGGSMHFYKKESSFYGGHGIVGAQVPLGCGIAFAQKYNKEEAVTFALYGDGAANQGQLFEALNISALWDLPAILVCENNHYGMGTAEWRAAKSPSYYKRGDYVPGLKVDGMDAFAVKQACKFAKQHALEKGPIILEMDTYRYHGHSMSDPGSTYRTRDEISGVRQERDPIERIKKLVLSHDLATEKELKDMEKEIRKEVDDAIAKAKDCPMPEPSELFTNVYVKGFGTESFGPDRKEVKASLP
chain 2: AAGAKEMTVRDALNSAIDEEMSADPKVFVMGEEVGQYQGAYKITKGLLEKYGPERVYDTPITEAGFTGIGVGAAYAGLKPVVEFMTFNFSMQAIDHIINSAAKSNYMSAGQINVPIVFRGPNGAAAGVGAQHSQCYAAWYASVPGLKVLAPYSAEDARGLLKAAIRDPDPVVFLENELLYGESFPISEEALDSSFCLPIGKAKIEREGKDVTIVTFSKMVGFALKAAEKLAEEGISAEVINLRSIRPLDRATINASVRKTSRLVTVEEGFPQHGVCAEICASVVEESFSYLDAPVERIAGADVPMPYAANLERLALPQIEDIVRASKRACYRSK
notes: co-expressed in E. coli with GroE; alpha2beta2 heterotetramer, Mr 160,000
B3: AtPDC E1 (AtE1; recombinant alpha2beta2 pyruvate dehydrogenase) (Arabidopsis thaliana; P52901:D295N) (protein)
chain 1: B2 chain 1 with D278N
chain 2: B2 chain 2
notes: as for B2
B4: AtPDC E1 (AtE1; recombinant alpha2beta2 pyruvate dehydrogenase) (Arabidopsis thaliana; P52901:G297D) (protein)
chain 1: B2 chain 1 with G280D
chain 2: B2 chain 2
notes: as for B2
B5: AtPDC E1 (AtE1; recombinant alpha2beta2 pyruvate dehydrogenase) (Arabidopsis thaliana; P52901:D295A) (protein)
chain 1: B2 chain 1 with D278A
chain 2: B2 chain 2
notes: as for B2

The first data set addresses T1, Arabidopsis thaliana pyruvate …. The experiment in a line: two-hybrid; bacterial two-hybrid (BacterioMatch I, Stratagene): AtPDK in pBT, E1α constructs in pTRG, cotransformed into the E. coli reporter strain; quantified by β-galactosidase activity with o-nitrophenyl-β-D-galactoside. The settings on record: partners not purified.
As to B1, the “β-galactosidase reporter activity (100% of WT)” value was found to be 3 μmol min^−1 1.0 A600^−1.

Substrate in the next data set: CC(=O)C(=O)O
Description: purified protein. The data set is classed as biochemical, Arabidopsis thaliana. Particulars: 1.8 μM K3Fe(CN)6 as electron acceptor, 30°C, labelled compound.
For the molecule B2, the Km was 45 ± 18 µM, the kcat came out at 159 ± 14 s⁻¹ and the kcat/Km was determined as 3.5e+06 M⁻¹ s⁻¹.
On the same counts, the results for B3 are 257 ± 144 µM, 38 ± 10 s⁻¹ and 100000 M⁻¹ s⁻¹.
For B4 the same measures were 66 ± 24 µM, 70 ± 7 s⁻¹ and 1e+06 M⁻¹ s⁻¹.
On the same counts, the results for B5 are 178 ± 108 µM, 52 ± 12 s⁻¹ and 300000 M⁻¹ s⁻¹.
